From the supplement of paper PMC9170038

test system: MS2 coat protein; assay: apparent KD of MS2 coat protein; higher = weaker reporter binding; details: Eterna round: R107; input ligand: theophylline 2 mM
Method in brief: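 Apparent KD per design is the median of normalised cluster binding-curve fits. Designed RNA switches transcribed on-chip from Illumina sequencing clusters were titrated with SNAP-549-labelled MS2 coat protein in twofold steps from 0.7 or 1.5 nM to 3 µM, with 0.8–1.5 h down to 10–20 min per step. Buffer: 100 mM Tris-HCl pH 7.5, 80 mM KCl, 4 mM MgCl2, without or with constant ligand.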

Row | Sequence | apparent KD of MS2 coat protein
1 | UGCGUACAUGAGGAUCACCCAUGUACUGAAGGAGCGGGAGGCAUCUCAGGUAGGUCGCAGACAUGAGGAUCACCCAUGUAGUGGU [Exclusion Arginine A GF 18] | 38.3 nM
2 | GGUAACUCUACGGCCGCCACUGAACAUGAGGAUCACCCAUGUAAUGUUCAGAUUUUUUUUUUUUACAGGACCGGGUAGUGUUACC [Tryptophan B 4] | 275 nM
3 | UUAGUAACGACGGCCGCCACUGGAUAUGAACAUGAGGAUCACCCAUGUAGAGAUCCUAGAAUAAACAGGACCGGGUCUGAUAAUA [Exclusion Tryptophane B GF 2] | 17.3 nM
4 | CACAUGAGGAUCACCCAUGUCUGAACUGAAGGAGCGCUAAAUAAGGCAGGUAGGUCGCGGAAUCGUGUGUGCAUAUGCACACGCG [9.U] | 25.3 nM
5 | AAAAGAGGUGGAAGGAGCGGGAGACAUGAGGAUCACCCAUGUGAAGUGACGAAAGGAUCAUCCCAGGUAGGUCGCCAUGUCGAAA [csstmullin] | 39 nM
6 | GGACUAACCAGAAGGAGCGACGCGCAGAAACUGCAAAUUCCUCCACACGAGGAUCACCCGUGUCAGGUAGGUCGCUGGUUAGUCG | 16.1 nM
7 | ACGCUGAUUGAUUACAAUCAGCGAAAAGAUACCAGUGGGUAAUCCCACCCUUGGCAGCUUAAACUUGAGGAUCACCCAGGUGGUA [TheoAS 17 #MS2Right #BothOrNeither #AlternativeMS2] | 439 nM
8 | AUACAUGAGGAUCACCCAUGUUAUAGUGAAGGAGCGACAUUUAGGUCAGGUAGGUCGCACUAUUGAAUUAUUAUUCUCAGUUCUU [JR_ExcArginiA_Sub019] | 13.7 nM

same assay, conditions: Eterna round: R107; input ligand: tryptophan 2.4 mM

Row | Sequence | apparent KD of MS2 coat protein
9 | GUGUACAUGAGGAUCACCCAUGUCGAGUUACGAGGACCGGUACGGCCGCCACUCGGCGGCUCGACACGGAUAGCGGUGCGUUGCU [Exclusion - Tryptophan A] | 129 nM
10 | ACAUGAGGAUCACCCAUGUACAUAAGGGAAGGAGCGCGGUGAAACGCAGGUAGGUCGCCCAUAAUAUCUAACAUUAAAUUCAUGU [LeftA3] | 18.8 nM
11 | GGACUAACCAGAAGGAGCGGCACGCAGAAACUGCAAAAUCCUCCACACGAGGAUCACCCGUGUCAGGUAGGUCGCUGGUUAGUCG | 48.4 nM
12 | AUUCCAUUGGUGCAGUUGUUAAAUGGCGAUACCAGCGUGGAAACACGCCCUUGGCAGCGCCAAAACAUGAGGAUCACCCAUGUUA [Havirov] | 59.1 nM
13 | CGAUAGGGUCAAUACCUAAUCAUAUCUGAAGGAGCGUGGAUAUACACAGGUAGGUCGCAGAAUCACAUGAGGAUCACCCAUGUCC [Same State Arginine A GF13] | 96.5 nM
14 | CGGUUUGUGAUGGAUACCAGCAGAGAAAACGUUUAUCCUAACAUGAGGAUCACCCAUGUAUGCCCUUGGCAGCUGUUGUGGGCUG [8.U] | 43.5 nM
15 | GGUCCCGUCGGAAGGAGCGACAUGAGGAUCACCCAUGUCUCCCGUUAUGGGAGUUCUUUAGGUCAGGUAGGUCGCCGGCGGGAGC [#1 Exclusion - Arginine B Attempt #15 (Inspired by Omei)] | 74 nM
16 | AAACGCCACGGAAGGAGCGACAUGAGGAUCACCCAUGUAGAUUUGGCGGAUGCACCCUCCUGUCAGGUAGGUCGCCGUGCGAUAA [XArg-B25] | 86.6 nM
17 | GGGUACAUCGCGGCCGCCACUCGUGUAAAUACAUGAGGAUCACCCAUGUCGAUGGAGACAUCGGCGAGGACCGGGUGAUGUACCG | 11.5 nM
18 | AGUGUUAUAACUGAUACCAGACUUUUGCUUAUACAUGAGGAUCACCCAUGUAAAAUGGUUGUCCCUUGGCAGCAGAAAAUACACA [JR_SSTheophyB_Sub007] | 134 nM
19 | CCUCAUGUGGUGCUGCACAUGAGAGGUGAUACCAGCAUCGAAAGAUGCCCUUGGCAGCACCAACAUGAGGAUCACCCAUGUAAUA [(M)'-(T)'-(M)''-(T1)-(T2)-(M1)-(M2)_Design1] | 25 nM
20 | UCACAUGAGGAUCACCCAUGUAAAGUUGAAGGAGCGAUCAUUAGGUCAGGUAGGUCGCAACACAUGAGGAUCACCCAUGUUGUCC [DOUBLE!!! :-D] | 38.3 nM
21 | UGAUUGAACGGAAGGAGCGUGAAGAGAGAGAAACAUGAGGAUCACCCAUGUAGAGAGAGAUCACAGGUAGGUCGCCGAGAGAUUG [11.C] | 17.1 nM
22 | AUAACAUGAGGAUCACCCAUGUAAGCAGAUACCAGCUAGGAAACUAGCCCUUGGCAGCUGCAAGGUGAUCCUAGGUAUCUGCAAU [(M1)-(M2)-(T1)-(T2)-(M)'-(T)'_Design6] | 25.9 nM
23 | AAGACGGUCGGAAGGAGCGGUACAUGAGGAUCACCCAUGUACCUCUGGGCAUCCGUAGUGUGCCAGGUAGGUCGCCGAUUGCGGG [Esorbevege] | 12.1 nM
24 | UGUAUGUGAUCUGAUACCAGUCCAACUGGUAAAACCUGAGGAUCACCCGGGUAAAAUUGGGACCCUUGGCAGCAGAUCGCAUACU | 683 nM

Row | Sequence | apparent KD of MS2 coat protein
25 | UAUGUCGCCGAAGAUACCAGCCUGGCAAGCAACAUGAGGAUCACCCAUGUAAUUACUUAUGGCCCUUGGCAGCUUCAAAUAGAGC [theeternabot_sameState_MS2_Theo_B_42] | 12.4 nM
26 | UCGGGCAGAGCGGCCGCCACUGUUUGGCAUGCGGAUGAAGGAACAUGAGGAUCACCCAUGUAGAUUAGGACCGGGCUAGCGGAGA [sscsmullin] | 16.3 nM
27 | UCAGUGCAAGGAAGGAGCGGGUACAUGAGGAUCACCCAUGUGCAAGUGGUGAGCGUCCGUGCCCAGGUAGGUCGCCUAGCCUGGU [Quisso] | 101 nM
28 | AUACAUGAGGAUCACCCAUGUAUAGUUGAAGGAGCGACCAGAGGGUCAGGUAGGUCGCAGCGCAUGAGGUAAGCCCAUGUAUGCU [#1 Exclusion - Arginine A Attempt #16 (Inspired by Pi)] | 17.2 nM
29 | UGCGUACAUGAGGAUCACCCAUGUACUGAAGGAGCGGGAGGCAUCUCAGGUAGGUCGCAGACAUGAGGAUCACCCAUGUAGUGGU [Exclusion Arginine A GF 18] | 26.6 nM
30 | UUAGCACAUGAGGAUCACCCAUGUCUCGAUACCAGAUAAGUUCCGAUCCCUUGGCAGCGACAAGCUUGCAAACUGCGACUAUUCU [theeternabot_sameState_MS2_Theo_A_42] | 24.8 nM
31 | AUCGGCAGAAAAGAUACCAGAGUAAUACACAACAUGAGGAUCACCCAUGUACGGACAAUCCUCCCUUGGCAGCUUGUAACAGUAU [theeternabot_sameState_MS2_Theo_B_32] | 48 nM
32 | CACAUGAGGAUCACCCAUGUCUGAACUGAAGGAGCGCUAAAUAAGGCAGGUAGGUCGCGGAAUCGUGUGUGCAUAUGCACACGCG [9.U] | 18 nM
33 | AAAAGAGGUGGAAGGAGCGGGAGACAUGAGGAUCACCCAUGUGAAGUGACGAAAGGAUCAUCCCAGGUAGGUCGCCAUGUCGAAA [csstmullin] | 21.7 nM
34 | ACGACGCAUAGUGAUACCAGUAGAACAUGAGGAUCACCCAUGUCUGUGACGCACCACCUCUGCCCUUGGCAGCACUAUGCGUCAG [SSTheo B #8] | 23 nM
35 | UGACAUUGCUCAGAUACCAGACAUGAGGAUCACCCAUGUGCCAACGUACAAAUAAUAAAUGUCCCUUGGCAGCUGAGCAAUGUCU [TheoBX 15 #MS2Left #Theo2] | 11.4 nM
36 | ACCCUAGCGAUCGCUCGCUAGGGUGCGGAUACCAGCGAGGUCCAUCGCCCUUGGCAGCCGAACAUGAGGAUCACCCAUGUCGGUA [#1 Same State - Theophylline A Attempt #19 (HarryS)] | 10.4 nM
37 | GGACUAACCAGAAGGAGCGACGCGCAGAAACUGCAAAUUCCUCCACACGAGGAUCACCCGUGUCAGGUAGGUCGCUGGUUAGUCG | 18.2 nM
38 | ACGCUGAUUGAUUACAAUCAGCGAAAAGAUACCAGUGGGUAAUCCCACCCUUGGCAGCUUAAACUUGAGGAUCACCCAGGUGGUA [TheoAS 17 #MS2Right #BothOrNeither #AlternativeMS2] | 630 nM
39 | AUACAUGAGGAUCACCCAUGUUAUAGUGAAGGAGCGACAUUUAGGUCAGGUAGGUCGCACUAUUGAAUUAUUAUUCUCAGUUCUU [JR_ExcArginiA_Sub019] | 15.2 nM
